Assay results: the DeepSol protein solubility set

Test: soluble on expression in E. coli; label from the status in PepcDB or PDB records
In the case of “MGGDFGPSVTVPAALQALNSNSQLTLLLVGNSDAITPLLAKADFEQRSRLQIIPAQSVIASDARPSQAIRASRGSSMRVALELVKEGRAQACVSAGNTGALMGLAKLLLKPLEGIERPALVTVLPHQQKGKTVVLDLGANVDCDSTMLVQFAIMGSVLAEEVVEIPNPRVALLNIGEEEVKGLDSIRDASAVLKTIPSINYIGYLEANELLTGKTDVLVCDGFTGNVTLKTMEGVVRMFLSLLKSQGEGKKRSWWLLLLKRWLQKSLTRRFSHLNPDQYNGACLLGLRGTVIKSHGAANQRAFAVAIEQAVQAVQRQVPQRIAARLESVYPAGFELLDGGKSGTLR”, the “soluble on expression in E. coli” value was “soluble”.
In the case of “SLIDKIKSNARDLRRNLTLQERKLWRYLRSRRFSDFKFRRQHPVGSYILDFACCSARVVVELDGGQHDLAVAYDSRRTSWLESQGWTVLRFWNNEIDCNEETVLENILQELNRRSPSP”, the “soluble on expression in E. coli” value was “soluble”.
With “MGSDKIHHHHHHMPIHLIWGDDAAARDHAIETLIGDVVDQAWSSINLSRLDGADAGQASQALAEARTPPFGSGGRLVLLQRSPFCNACPSELANRFEDVLDLIPETSHLVLCNPNKPDGRLRTTKALQKLVKLKQASEKSFLLPAIWDGAGQQELVERTARDLGLQLEPEATAALVEAIGNDSTRLTAELQKLALHADIRQESATENQSPTLIKAENVAALIEGMATNALQVGDSLLAGHAGEAIARLDALLDAGEPALRIVATLTGQIRGWLWVSLLEQQGERDVNVIAKAAGIGNPKRIYVMRKQLQGRPPQRFLTLLSRLLEVEAALKRGAIPTDAFRDGLLSTP” the “soluble on expression in E. coli” value was “not soluble”.
With “FHQISSRIQKSIDVDEVLRLCAEGLHDVLGYERVNILMADTARTSLSFVAAVGTADFNPAGVVLPLDQRGGVITKCFTDRQVYMIDDVSAYPTDFRLQSPYDAIRALRSKSFVICPIVVKGEAIGVFAVDNRSSRRSLNDTDVDTIKLFADQASSAIVRINLLKAI” the “soluble on expression in E. coli” value was “soluble”.
With “VRSRNGGATKIVREHYLRSDIPCLSRSCTKCPQIVVPDAQNELPKFILSDSPLELSAPIGKHYVVLDTNVVLQAIDLLENPNCFFDVIVPQIVLDEVRNKSYPVYTRLRTLCRDSDDHKRFIVFHNEFSEHTFVERLPNETINDRNDRAIRKTCQWYSEHLKPYDINVVLVTNDRLNREAATKEVESNIITKSLVQYIELLPNADDIRDSIPQMDSFDKDLERDTFSDFTFPEYYSTARVMGGLKNGVLYQGNIQISEYNFLEGSVSLPRFSKPVLIVGQKNLNRAFNGDQVIVELLPQSEWKAPSSIVLDSEHFDVNDNPDIEAGDDDDNNESSSNTTVISDKQRRLLAKDAMIAQRSKKIQPTAKVVYIQRRSWRQYVGQLAPSSVDPQSSSTQNVFVILMDKCLPKVRIRTRRAAELLDKRIVISIDSWPTTHKYPLGHFVRDLGTIESAQAETEALLLEHDVEYRPFSKKVLECLPAEGHDWKAPTKLDDPEAVSKDPLLTKRKDLRDKLICSIDPPGCVDINDALHAKKLPNGNWEVGVHIADVTHFVKPGTALDAEGAARGTSVYLVDKRIDMLPMLLGTDLCSLKPYVDRFAFSVIWELDDSANIVNVNFMKSVIRSREAFSYEQAQLRIDDKTQNDELTMGMRALLKLSVKLKQKRLEAGALNLASPEVKVHMDSETSDPNEVEIKKLLATNSLVEEFMLLANISVARKIYDAFPQTAMLRRHAAPPSTNFEILNEMLNTRKNMSISLESSKALADSLDRCVDPEDPYFNTLVRIMSTRCMMAAQYFYSGAYSYPDFRHYGLAVDIYTHFTSPIRRYCDVVAHRQLAGAIGYEPLSLTHRDKNKMDMICRNINRKHRNAQFAGRASIEYYVGQVMRNNESTETGYVIKVFNNGIVVLVPKFGVEGLIRLDNLTEDPNSAAFDEVEYKLTFVPTNSDKPRDVYVFDKVEVQVRSVMDPITSKRKAELLLK” the “soluble on expression in E. coli” value was “soluble”.
In the case of “MGAVSAFSWASSGRLHALEVFVMKIPKTYDEIMEHFGGLIDEVTAELLESYAKGETVRVSEALAKSGRVAVEGVVLRVFPVRHFSKNGRSGKVGSVVIQDDCTVRVNFWNEAAEIIEAGDIVEGARIKVRGYARGEEIHVNSLSEVEVFVDFVNISELDEKVGERVNVKGFVSGLGEPEKANEIYISDETGRVKVLLENESLYYAVDIGSYVEIYNALAGEDGIYVDRNSRFSVGE”, the “soluble on expression in E. coli” value was “soluble”.
With “MAHHHHHHSLITANDIRAAHARGEQAMSVVLRASIITPEAREVAELLGFTITECDESVPASTSAQACKSESQRIREAIIAQLPEGQFTESLVAQLMEKVLKEKQSLELGTMQPSFTSVTGKGGVKVIDGSSVKFGRFDGAEPHCVGLTDLVTEQDGSSMAAGFMQWDNAFFPWTLNYDEIDMVLEGELHVRHEGETMIAKAGDVMFIPKGSSIEFGTPTSVRFLYVAWPANWQSVEG” the “soluble on expression in E. coli” value was “soluble”.
For “MGSDKIHHHHHHMNTYAQESKLRLKTKIGADGRCVIEDNFFTPPFKLMAPFYPKDDLAEIMLLAVSPGMMRGDAQDVQLNIGPNCKLRITSQSFEKIHNTEDGFASRDMHIVVGENAFLDFAPFPLIPFENAHFKGNTTISLRSSSQLLYSEIIVAGRVARNELFKFNRLHTKISILQDEKPIYYDNTILDPKTTDLNNMCMFDGYTHYLNLVLVNCPIELSGVRECIEESEGVDGAVSETASSHLCVKALAKGSEPLLHLREKIARLVTQTTTQKV”, the “soluble on expression in E. coli” value was “not soluble”.
With “MKKLITALSLVLVSYASMAAQECSLDFVKSAPNSRYLYSDLGVVTDLKTGLTWMRCPVGMTWDMAQKACSGEAQKVTWQNALLTAEQIRNASGNHVLHNFADKKQWRLPNIKELVTLTERACFHPSMNGTAFESAYSLETGDLGSYIWSNTPGTDARQIMTFESVNGDVIGYSPEANQFSVLLVTDEDLEHHHHHH” the “soluble on expression in E. coli” value was “not soluble”.
For “MSLDVALAPPGPLASGGLRVTALGGISEIGRNMTIFEHLGRLLIIDCGVLFPGHDEPGVDLILPDLRHIEDRLDDIEALVLTHAHEDHIGAIPFLLKLRSDIPVVGSKFTLALVAAKCREHRIKPVFVEVVGGQSSRHGVFECEYFAVNHSIPDALTIAVYTGAGTVLHTGDIKLDQLPLDGRPTDLPGMSRLGDAGVDLFLCDSTNAEIPGVGPSESEVGPTLHRLIQGADGRVIVACFASNVDRVQQVIDAAVALGRRVSFVGRSMVRNMSIARDLGFLRVDDSHMIDIAAAEMMAPEQVVLITTGTQGEPMSALSRMSRGEHQSITLTSGDLVVLSSSLIPGNEEAVYGVIDALAKIGARVVTNAQARVHVSGHAYAGELLFLYNGVRPRQVMPVHGTEGHHHHHH”, the “soluble on expression in E. coli” value was “soluble”.
In the case of “MSEFWKARNWQRKFLVTGRRCFHPMELFSEIKNRYFQLMFRIINECAEGKSKSEVLKIIDEGEFGQKVIGKNQKSFSDLVLNRCAPDENLNLLIEKDGMYYPSIMNSDESGNMAGNAAKKITRPPLPVRFSQIEKAWLKALLDKEEARMILSRETFDKLQKELAGIDTPIKDEYFEFTNKIKLPEIANQKAYEENFRLLLNAIIQEKPIRYNNIDKKGNMYNDRLALPVSIEYSMRDGRFRVSMYLLDENRPVMANVFTLSDIRIVDEDVGFDRETAKRLLLEQKYSEEPIILEVTDEKAAMERCFMCFSGMERTARSLGNNKYEIKLNYYLFEEENLIRNIISLGPYVKVISPQRIVDEVVARVKKAISLYNI”, the “soluble on expression in E. coli” value was “not soluble”.
For “MSLRESVLKIYNWADYIDEDMLAEFPRWYKEQTGEDIRIVYQTFDINEIMLTKIERGHEDFDVVCPSEYIIERMLRKGLLLPIDTVFGKTPNYLHNESPYIREQLDKLSWSGHRASDYAIGYMWGTAGILFNTDHVPAEDARTWASLWNLKYENKILMKESYRDAYGTALIYANAEDLKKGKVTVEELMNNYSQASIDTVEKYLKAMKPLIAGWEADFGKEMMTKGKAWLNMTWSGDAVWAIEEAEGVGIHLDYEVPVEGSNVWYDGWVIPKYARNKKAASYFINYLCRPDVALRNMDACGYVSAVATPEILEAKIDTTLSYFADLSYFFGPAADSIQIDKVQYPDRTVVERCAMIRDSGDKTELVLEMWSRVKGDNEGHHHHHH”, the “soluble on expression in E. coli” value was “soluble”.
In the case of “MGSDKIHHHHHHMTTSAVSIPMPSIPRRRRSPEDVLAAAPVPGPKKVLLAAPRGYCAGVDRAVIAVEKALEHYGPPVYVRKQIVHNVHVVSSLEEKGAIFVDETDEVPEGALVIFSAHGVSPAVVQSAEDRGLRTIDATCPLVTKVHREAVRFAKDDFDILLIGHDGHEEVEGTAGEAPEHIQIINGPHEVDKVTVRDPEKVIWLSQTTLSVDETMETVRLLKERFPTLQDPPSDDICYATTNRQVAIKKISPQADLVIVVGSANSSNSVRLVEVALEYGAKASYRVDFANEVDEAWFEGVATVGVTSGASVPEVLVKDVLRLLADYGYGTVEEVVTAEEDLLFSLPKELRATLKKSGDVTRALGGRGARA”, the “soluble on expression in E. coli” value was “not soluble”.
With “NGFDREMRTRILGMVPQATVESYQPIDDWRALAEKVKAHEHVTAVAPFTQMQGMLSANGAVQTVMVDAVDPLEEAKVSIIPDFFKQGSLAELKAGGFGIVIGQLAAQKLGVGIGDKVTLILPEVAVTPAGVFPRMKRFTVVGTFRVGAGELDGGLSLIHLEDAARLQRWKTNQVQGLRLKLDDLFQAPRVAWEIARTLTDNDFYARDWTRSHGNLYQAIRMEKT” the “soluble on expression in E. coli” value was “not soluble”.
In the case of “MGSDKIHHHHHHMPRTIRIYRPTELPADEALPVIYMHDGQNVFSGETASFGKGWEVHHALHTVQLHAMIVAIDSPDDGMDRYDEYAPWTDEALLMRTAYPSHRKTIGGNGKQYMHWIVHELKPYIDAQYATIPTDTTMIGSSMGGVISLYGLFAYPEVFTRVAALSTAGWANFSSLLEFIERSPGLSEDHRCYMDVGTKEVSGPMTENDYLHTNEVLAKAVQKKVQQAAYEIIPGAVHHETEWAKRMPDILRFLFSS”, the “soluble on expression in E. coli” value was “not soluble”.
For “MARRIGHPYQNRTPPKRKKPRTSFTRIQVAELEKRFHKQKYLASAERAALARGLKMTDAQVKTWFQNRRTKWRRQTAEEREAERQAANRLMLS”, the “soluble on expression in E. coli” value was “soluble”.
In the case of “MNLYRLLKQREADQKPLRVALIGAGKFGSMFLSQVQRTPGMRLVAVADLAPDRARAALTRVGWPAAALNADTIHHAVKTGKVYFSDDVRSVSVDPEVEIVIDATGQAAAGIEHVLTCCEYGKHII”, the “soluble on expression in E. coli” value was “not soluble”.
For “MSALDPQASARVARTPDAEPEAVDASAAGESAGLIARLGRLFERDRLPPPADLAQLFEARLTDVRANKLAQAWRLAYEQADGKRRRAMLGGLAQVGAGMQGDGAQGTRLFKRFNALPDGLRFLVALRADMLRWRKQVAGLQALDKELEALLSAWFDVGLLELRPLTWDSPASLLEKLILYEAVHEIRSWDDLRHRVAGDRRCYAYFHPQMPDVPLIFVEVAFSAQMADNVQALLDTSAPPQDLDKARWAIFYSISNTQPGLRGISFGNFLLKRVIDRLLQELPKLKFFATLSPIPGFADWLSRLDAQEVEQAVRDKARTRSGAPDGARWVARLARAATGKPSEVVQRAGLRLAARYLQAMRAGQPLDPVARFHLGNGARIERLNWAADTSAKGLAQSCGMMVNYLYELGDLDGNLARLNEGKPQVSRGIARLGLEHHHHHH”, the “soluble on expression in E. coli” value was “not soluble”.
In the case of “MGSDKIHHHHHHMIIHEITEECFKKYGKVIDSIDLTELVSTMQTVEIPADVVYEPSISALEKLKCATELQQKTYGELPIQIGWCIGNNHKLNAVEYHRCSEVNIAATDAILILGRQQDISVENTYDTSLMEAFRIPSGTAVELYATTLHYAPCNASAGGFLVAVVLPKGTNEALEHPHTGGEDALLAAKNKWLIGHPEGGLPDGSYIGLTGENLEIK”, the “soluble on expression in E. coli” value was “not soluble”.
In the case of “MSLNARTNIALLANSSSPLHPLQELLAVAGYQCNVFHAGRDLIQGLGHDTYEMLLIDRELADISAIDVIRTVRAVRNRDVPIVIFASENNDDDLVEALDAGADDYVLRPLAARVLLARIAALRRRMSGTRLRGAMPLRAGPYELSNPGRYATLNGGRIPMTPKEFDLAMLMFANAGRILASRRIEHTIWGHDLPPYSRALAGLVSRMRRTLNLCAENGVTVSVVYAQGYRLDILDEGHHHHHH”, the “soluble on expression in E. coli” value was “not soluble”.
